This note sets out measurements from patent US20090271896A1 (SAMUEL ROBERTS NOBLE FOUNDATION, published 2009).

Test [1] has as its target T1, AtVIP2 (Arabidopsis VirE2-Interacting Protein 2), largest cDNA clone in pGAD424 (Arabidopsis thaliana, UniProt Q9FPW4 59-614).
T1 construct: also called At5g59710; GenBank AF295433
T1 sequence: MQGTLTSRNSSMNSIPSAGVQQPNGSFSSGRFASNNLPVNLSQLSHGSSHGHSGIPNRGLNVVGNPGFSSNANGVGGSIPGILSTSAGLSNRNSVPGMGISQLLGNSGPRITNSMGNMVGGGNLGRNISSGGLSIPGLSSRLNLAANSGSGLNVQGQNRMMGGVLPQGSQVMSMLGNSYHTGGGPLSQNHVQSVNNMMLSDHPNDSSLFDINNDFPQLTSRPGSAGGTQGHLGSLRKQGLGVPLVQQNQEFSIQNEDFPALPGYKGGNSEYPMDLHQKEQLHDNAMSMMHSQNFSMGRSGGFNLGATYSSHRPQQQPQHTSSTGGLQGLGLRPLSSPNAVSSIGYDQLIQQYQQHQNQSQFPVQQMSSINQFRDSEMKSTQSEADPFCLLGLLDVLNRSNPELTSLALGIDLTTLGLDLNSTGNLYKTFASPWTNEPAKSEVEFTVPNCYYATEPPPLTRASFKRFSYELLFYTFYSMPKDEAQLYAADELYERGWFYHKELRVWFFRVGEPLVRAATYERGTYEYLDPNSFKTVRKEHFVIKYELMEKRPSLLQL
In words: yeast two-hybrid, HIS3 and beta-galactosidase reporters.

Test [2] addresses T2, NbVIP2 (N. benthamiana VIP2) in pGAD424 (Nicotiana benthamiana, UniProt Q52JK6 1-603).
T2 construct: also called pGAD-NbVIP2; GenBank DQ000202
T2 sequence: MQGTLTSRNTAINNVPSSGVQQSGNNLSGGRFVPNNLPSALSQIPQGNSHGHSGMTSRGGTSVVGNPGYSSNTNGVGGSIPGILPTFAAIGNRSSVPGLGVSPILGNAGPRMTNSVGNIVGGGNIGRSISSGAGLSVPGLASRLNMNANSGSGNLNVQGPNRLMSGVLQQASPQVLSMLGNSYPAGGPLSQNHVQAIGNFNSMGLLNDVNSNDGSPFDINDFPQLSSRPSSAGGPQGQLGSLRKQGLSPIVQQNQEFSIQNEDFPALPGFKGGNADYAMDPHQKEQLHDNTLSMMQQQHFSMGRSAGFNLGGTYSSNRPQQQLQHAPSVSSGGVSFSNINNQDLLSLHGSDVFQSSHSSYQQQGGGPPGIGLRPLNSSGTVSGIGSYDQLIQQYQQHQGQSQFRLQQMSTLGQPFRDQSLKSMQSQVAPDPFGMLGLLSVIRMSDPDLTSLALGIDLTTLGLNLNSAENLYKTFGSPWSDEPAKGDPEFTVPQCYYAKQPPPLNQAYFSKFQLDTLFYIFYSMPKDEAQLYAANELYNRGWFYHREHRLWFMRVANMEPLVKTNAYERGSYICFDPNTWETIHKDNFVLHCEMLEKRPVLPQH
In words: yeast two-hybrid, growth on triple dropout (-Leu/-Trp/-His) plates.

B1: human lamin C (other)
chain: SEEVVSREVSGIKAAYEAELGDARKTLDSVAKERARLQLELSKVREEFKELKARNTKKEGDLIAAQARLKDLEALLNSKEAALSTALSEKRTLEGELHDLRGQVAKLEAALGEAKKQLQDEMLRRVDAENRLQTMKEELDFQKNIYSEELRETKRRHETRLVEID
notes: also called pSTT-LaminC
Regarding B1, the binding result in test [1] and in test [2] was “no binding” each time.
